Reference: the supplement of paper PMC6757056
± gives the standard deviation of the averaged measurements.

B1: library; a variant is named by its letters at N, in order (parent)
chain: GCUGUCACCGAGAAACUGUGAAGUAUAUCUUAAACCUGGGCACUUAAAAGAUAUAUGGAGUUAGUAGUGCAACCUGCUCGGUCUGAUGAGUCCNNNNNNGGACGAAACAGC

How the values were obtained:
cyclic di-GMP [1] = variants of: B1; test: FACS-Seq fitted mean relative fluorescence mCherry/BFP without ligand (log10 relative fluorescence); HEK293T; ligand: cyclic di-GMP (c-di-GMP-II aptamer); higher = higher reporter protein expression; details: ligand present: no
Summary of the method: (§1)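 Fluorescence comes from a normal fit to bin counts, normalized against controls. HEK293T libraries lentivirally given a ribozyme-switch mCherry reporter and an EF1α-BFP marker were enriched, incubated 48 h with or without ligand, and sorted by mCherry/BFP into 6 bins. Bin genomic DNA was PCR-amplified, barcoded and sequenced on MiSeq. The log10(mCherry/BFP) mean was scaled to five spiked-in control ribozymes.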

cyclic di-GMP [2] = variants of: B1; test: normalized RNA/DNA level without ligand (relative to sTRSVctl = 100) (log10 (% of sTRSVctl)); HEK293T; ligand: cyclic di-GMP (c-di-GMP-II aptamer); higher = less ribozyme self-cleavage, higher mRNA level; details: reporter: mCherry (pCS4076), ligand present: no
Summary of the method: (§2)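 Ribozyme switch library plasmids linked to reporters were introduced into HEK293T cells at 4 µg per 6-well well, with ligand, if any, added 1 h before. Total RNA was extracted with EDTA 72 h later, reverse-transcribed, amplified, barcoded and sequenced. RNA level was computed from RNA over DNA reads relative to a spiked-in non-cleaving sequence or the top sequences, then scaled and log-transformed. The top set was 25 sequences, values were ×100 and log10, and the cutoff was ≥100 DNA reads.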

cyclic di-GMP [3] = variants of: B1; test: FACS-Seq fitted mean relative fluorescence mCherry/BFP with ligand (log10 relative fluorescence); HEK293T; ligand: cyclic di-GMP (c-di-GMP-II aptamer); ligand concentration (+) FACS-Seq: 1 mM; higher = higher reporter protein expression; details: ligand present: yes
Summary of the method: as §1

cyclic di-GMP [4] = variants of: B1; test: normalized RNA/DNA level with ligand (relative to sTRSVctl = 100) (log10 (% of sTRSVctl)); HEK293T; ligand: cyclic di-GMP (c-di-GMP-II aptamer); ligand concentration (+) RNA-Seq: 1 mM; higher = less ribozyme self-cleavage, higher mRNA level; details: reporter: mCherry (pCS4076), ligand present: yes
Summary of the method: as §2

| Variant | FACS-Seq fitted mean (log10) (cyclic di-GMP [1]) | normalized RNA/DNA level without ligand (log10) (cyclic di-GMP [2]) | FACS-Seq fitted mean (log10) (cyclic di-GMP [3]) | normalized RNA/DNA level with ligand (log10) (cyclic di-GMP [4]) |
| --- | --- | --- | --- | --- |
| AAUUGG | 0.0192 ± 0.091 | 1.59 ± 0.068 | 0.141 ± 0.0084 | 1.74 ± 0.13 |
| UCACUU | -0.404 ± 0.091 | 1.611 ± 0.0095 | -0.0521 ± 0.15 | 1.77 ± 0.14 |
| GAUUGG | -0.22 ± 0.02 | 1.63 ± 0.02 | 0.0818 ± 0.059 | 1.75 ± 0.093 |
| GAUUGA | 0.00942 ± 0.089 | 1.5 ± 0.084 | 0.252 ± 0.042 | 1.7 ± 0.072 |
| ACACGA | -0.4507 ± 0.0033 | 1.37 ± 0.16 | -0.174 ± 0.061 | 1.55 ± 0.11 |
| ACACGG | -0.501 ± 0.0065 | 1.53 ± 0.084 | -0.192 ± 0.029 | 1.69 ± 0.1 |
| UCCAAA | -0.284 ± 0.0034 | 1.57 ± 0.076 | 0.111 ± 0.079 | 1.75 ± 0.12 |
| CCACUU | -0.246 ± 0.072 | 1.5 ± 0.069 | -0.0246 ± 0.1 | 1.69 ± 0.078 |
| CCACUA | -0.725 ± 0.038 | 1.43 ± 0.13 | -0.348 ± 0.019 | 1.66 ± 0.067 |
| CCCCCA | -0.0821 ± 0.078 | 1.71 ± 0.046 | 0.187 ± 0.091 | 1.83 ± 0.14 |
| AAUGGA | -0.46 ± 0.012 | 1.36 ± 0.11 | -0.114 ± 0.0052 | 1.55 ± 0.066 |
| AAUGGG | -0.71 ± 0.015 | 1.4 ± 0.11 | -0.453 ± 0.035 | 1.57 ± 0.076 |
| AAUGGC | -0.236 ± 0.066 | 1.65 ± 0.033 | 0.153 ± 0.011 | 1.81 ± 0.061 |
| UAUGGU | -0.169 ± 0.095 | 1.569 ± 0.014 | 0.0872 ± 0.053 | 1.76 ± 0.11 |
| ACCCUC | -0.504 ± 0.046 | 1.784 ± 0.015 | -0.217 ± 0.028 | 1.91 ± 0.057 |
| ACCCUG | -0.354 ± 0.046 | 1.67 ± 0.022 | 0.0314 ± 0.09 | 1.83 ± 0.097 |
| CCAAUG | -0.6462 ± 0.0011 | 1.23 ± 0.16 | -0.334 ± 0.017 | 1.49 ± 0.018 |
| CCAAUA | -0.5437 ± 0.0029 | 1.36 ± 0.12 | -0.271 ± 0.066 | 1.59 ± 0.11 |
